# Assays:
# (HeLa cells) = assay: cell death assay with ion channel inhibitors; assay type: cell-based; details: HAMLET 21-35 μM, three hours
# Procedure: Cells were detached from cell culture flasks with versen (0.2 g EDTA in 200 ml H2O and 800 ml PBS), washed with PBS and resuspended in serum-free RPMI-1640. HAMLET dissolved in PBS was incubated with cells (0.5×10^6/ml for A549, A498 and HeLa cells; 1×10^6/ml for Jurkat) at 37° C. FCS was added after 1 hour. Cell death was quantified by trypan blue exclusion (Chroma Gesellschaft Schmid & Co) or by measuring ATP levels (ATPlite Kit, PerkinElmer, Infinite 200, Tecan). Light images were captured using the HOLOMONITOR™ M2 digital holographic microscope (Phase Holographic Imaging AB, Lund, Sweden).
# For studies with inhibitors, cells were pretreated for 30 minutes. Inhibitors used were Gadolinium chloride (GdCl3, 100 μM), Barium chloride (BaCl2, 1 mM), Ruthenium red (30 μM), tetrandrine (10 μM) and amiloride (1 mM), all from Sigma Aldrich. For p38 inhibition, SB202190 (20 μM, Sigma Aldrich) or BIRB796 (10 μM, Axon Medchem) dissolved in DMSO was used. The wells were washed twice with PBS and new medium with inhibitor was added. For RNA interference, FlexiTube siRNA Premixes against MAPK11 (SI00606053), MAPK14 (SI00300769) and All Star Negative Control siRNA (SI03650318) from Qiagen was used. A549 forward was transfected using 25 nM final siRNA concentration in 24-well plate. […]
# tumor cells [1] = assay: internalization of Alexa-fluor labeled HAMLET (confocal microscopy); assay type: cell-based; details: HAMLET 35 μM, 1 hour
# Procedure: FIG. 2. Ion channel inhibitors rescue carcinoma cells from death and block HAMLET uptake and morphologic change. (A) Viability of lung carcinoma cells after exposure to HAMLET (21 or 35 μM, 3 h), quantified by trypan blue exclusion. […] (B) BaCl2 and amiloride prevented carcinoma cells from changing their morphology in response to HAMLET (Mean of two images in one experiment+SEMs). (C) Internalization of Alexa-fluor labeled HAMLET by tumor cells (35 μM, 1 hour), visualized by confocal microscopy. […] GAPDH was the loading control. (E) The transcriptomic response to HAMLET requires functional ion channels.
# For live cell imaging, cells were pre-treated with SB202190 for 30 minutes, nuclei were stained with Hoechst 33342 (Invitrogen) and Alexa-Fluor 568-labeled HAMLET (10% labeled HAMLET, Molecular Probes) was added in serum-free medium. FCS was added after 1 hour. Fluorescence was detected with pinhole settings corresponding to 1 airy unit. The cells were kept at 37° C., 5% CO2 and examined unfixed by LSM510 DUO confocal microscopy (Carl Zeiss).
# [2] = system: Human renal tubular epithelial cells (HRTEC); assay: Ca^2+ and K^+ levels in healthy, differentiated cells in primary culture; assay type: cell-based; details: HAMLET 35 μM
# Procedure: Human renal tubular epithelial cells (HRTEC) were preincubated with Fluo-4 as described, exposed to HAMLET (35 μM) and examined by real time confocal microscopy.
# To further characterize ion channel activation by HAMLET, carcinoma cells were pretreated with defined channel blockers. Amiloride is a sodium channel inhibitor with effects on mechanosensitive channels, barium chloride (BaCl2) is a general K^+ channel inhibitor, gadolinium chloride (GdCl3) inhibits mechanosensitive channels, Ruthenium red is a general Ca^2+ inhibitor and tetrandrine inhibits large conductance, Ca^2+ activated K^+ channels. The carcinoma cells were preincubated with Fluo-4 as described above, pretreated with each of the channel inhibitors for 30 minutes, exposed to HAMLET (35 μM) and examined by real time confocal imaging. Furthermore, cells treated with EGTA were compared to cells with intact extracellular Ca^2+ levels, to distinguish the early peak from the subsequent influx of Ca^2+ (FIG. 1B, Table in FIG. 8).
# tumor cells [3] = assay: Tumoricidal Activity of Oleate-HAMLET (cell death method of Example 1); assay type: cell-based; details: 0.5 mg/ml
# [4] = system: human lung carcinoma (A549) cells; assay: extended microarray analysis (Illumina HumanHT-12); assay type: cell-based
# Procedure: (§1) For the extended microarray analysis, gene expression was assessed by whole genome Illumina microarrays (HumanHT-12 Expression BeadChip). Data was normalized using cross-correlation (Chua et al., 2006 Nucleic Acids Research 34: e38). Genes with a log 2 fold change ≧1.2 in tumor cells and ≧2.0 in healthy, differentiated cells at any time point were regarded as differentially expressed (Benjamini-Hochberg adjusted p-value <0.05).
# (§2) To identify the pathways that execute tumor cell death downstream of the ion channels, we further examined the global transcriptional responses to HAMLET in human lung carcinoma (A549) and kidney carcinoma (A498) cells over an extended period of 15 min to 24 hours. The p38 MAPK signaling pathway was identified as a top-scoring canonical pathway in A549 cells (FIG. 4A).
# [5] = system: kidney carcinoma (A498) cells; assay: extended microarray analysis (Illumina HumanHT-12); assay type: cell-based, human
# Procedure: as §1, §2
# (§3) To examine the molecular basis of the difference in HAMLET susceptibility between carcinoma cells and healthy, differentiated cells, transcriptional profiles were compared. […] These cytokines were not secreted by the carcinoma cells.
# [6] = system: healthy, differentiated pediatric kidney cells; assay: extended microarray analysis (Illumina HumanHT-12); assay type: cell-based, human
# Procedure: as §1, §3
# [7] = system: p38, HSP27 in healthy, differentiated kidney cells; assay: MAPK phosphorylation in healthy cells; assay type: cell-based, human
# skin papillomas = details: topical administration, placebo controlled; cited from earlier work
# bladder cancer [8] = details: local instillations; cited from earlier work
# bladder cancer [9] = details: mouse, in vivo; cited from earlier work
# glioblastoma xenograft = details: rat, in vivo; cited from earlier work
Molecule,rescue from HAMLET-induced cell death ((HeLa cells)),effect of inhibitor on internalization of HAMLET (tumor cells [1]),Ca^2+ response in HRTECs [2],duration of Ca^2+ response in HRTECs [2],Trypan blue (tumor cells [3]; Control 88),ATP Activity (tumor cells [3]; Control 100) [%],DUSP1 upregulation [4] [log 2-fold change],DUSP10 upregulation [4] [log 2-fold change],number of genes with minimum log 2-fold change of 1.2 compared to PBS-treated control cells ([4]; adjusted p-value <0.05),number of genes responding to HAMLET [5] [genes],number of genes responding to HAMLET [6] [genes],"phosphorylation of p38, its isoforms, or HSP27 [7]",effect on skin papillomas (skin papillomas),death of tumor cells vs healthy tissue (bladder cancer [8]),therapeutic efficacy in bladder cancer (bladder cancer [9]),cell death in healthy brain tissue (glioblastoma xenograft),tumor progression and survival (glioblastoma xenograft)
"[Ba+2].[Cl-].[Cl-] [BaCl2, barium chloride]",rescue effect,inhibited internalization,–,–,–,–,–,–,–,–,–,–,–,–,–,–,–
"NC(N)=NC(=O)c1nc(Cl)c(N)nc1N [amiloride, 3,5-diamino-6-chloro-N-(diaminomethylene)pyrazine-2-carboxamide]",rescue effect,inhibited internalization,–,–,–,–,–,–,–,–,–,–,–,–,–,–,–
"HAMLET (protein, UniProt P00709 20-142, looked up, oleic acid complex) Alpha-lactalbumin: KQFTKCELSQLLKDIDGYGGIALPELICTMFHTSGYDTQAIVENNESTEYGLFQISNKLWCKSSQVPQSRNICDISCDKFLDDDITDDIMCAKKILDIKGIDYWLAHKALCTEKLEQWLCEKL",–,–,weak and transient Ca^2+ response,about 90 seconds,8,21,1.34,1.98,Three hundred sixty-seven,4424,2064,"no phosphorylation of p38, its isoforms, or HSP27",removed or reduced the size of skin papillomas,caused rapid death of tumor cells but not of healthy tissue surrounding the tumor,Therapeutic efficacy,without evidence of cell death in healthy brain tissue,delayed tumor progression and led to increased survival
